Test results: patent publication US20090227510A1

Target: HLA-A2 (human)
Assay: HLA-A2 stabilization assay

For EIWTFSYKV [J65, variant of FBP epitope E39 (H5→F, Y7→T)], the HLA-A2 stabilizing ability relative to E39 was 0.5 fold of E39.
